Target: Recombinant human Pentraxin 3 (PTX3) (human) (UniProt P26022)
Experiment: ELISA

Sequence of UniProt P26022 (P26022 18-381): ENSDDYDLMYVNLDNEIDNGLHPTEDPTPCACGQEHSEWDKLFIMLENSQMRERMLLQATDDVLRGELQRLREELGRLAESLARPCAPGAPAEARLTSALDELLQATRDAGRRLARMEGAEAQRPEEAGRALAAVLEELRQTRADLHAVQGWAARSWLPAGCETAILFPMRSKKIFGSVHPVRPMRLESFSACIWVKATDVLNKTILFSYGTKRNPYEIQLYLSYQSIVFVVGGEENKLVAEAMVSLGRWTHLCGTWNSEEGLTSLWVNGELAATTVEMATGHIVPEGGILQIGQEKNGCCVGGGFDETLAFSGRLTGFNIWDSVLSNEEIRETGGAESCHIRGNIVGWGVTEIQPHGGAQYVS

Human TSP1 construct E123CaG-1 (type II repeats plus type III repeats and globular C-terminus) (domain or fragment)
increase of OD 450 nm over control buffer (% fold increase): 64

Source: PMC6315291
